Data from the nanobody polyreactivity screen of Harvey et al. (2022).

Assay: yeast display, Sf9 membrane polyspecificity reagent, FACS + sequencing; frameworks hold sequencing errors
Procedure, shortened: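 Galactose-induced (36–48 hours) yeast carrying a synthetic nanobody display library were exposed to 10% biotinylated, detergent-solubilized Sf9 membrane reagent at 4 °C for 1 hour. FACS followed streptavidin microbead enrichment, using low and high (top ~1%) gates for expression (anti-HA) and reagent binding (streptavidin). Colony PCR, MiSeq 2 × 250 sequencing and CDR-length filtering followed. Labels for polyreactivity reflect the gate of origin.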

Row | Sequence | polyreactivity (PSR sort gate)
1 | QVQLQESGGGLVQAGGSLRLSCAASGTISYAPHMGWYRHAPGKERELDAGITIGGTTYYADSVKGRFTISRDYAKNTVDLQMNRLSPGDTAVYYCAAHSEQYTPFYYWGQGTQVTVSS | low polyreactivity
2 | QVQLQESGGGLVQAGGSLRLSCAASGTITVLYKMAWFRQEPGKEREFVASINYGTSTYYADSVKGRFTVSRDSAKNTVYLQMNSLKPEDTAVYYCAAAYRWQDVYRYWGQGTQVTVSS | low polyreactivity
3 | QVQLQESGGGLVQAGGSLRLSCAASGYIILQYAMGWYRPAPGKERELVASIARGTSTYYADSVKGRFTISRDNAKNTVYLQMNSLKPEDTAVYYCAVIYSWGLWHDYWGQGTQVTVSS | high polyreactivity
4 | QVQLQESGGGLVQAGGSLRLSCAASGYISAGRQMGWYRQAPGKEREFVATINGGATTNYADSVKGRFTISRDNAKNSVFLQMNSLKPEDTAVYYCAAVIWYVQDYSYWGQGAQVTVSS | high polyreactivity
5 | QVQLQESGGGLVQAGGSLRLSCAASGYISHADEMGWYRQAPGKEHELVASISNGGSTNYADSVKARCTISRDNAKTTVYLQMNSLKSEATAVYFCAAWTGQVDIHYYWGQGTQVTVSS | low polyreactivity
6 | QVQLQESGGGLVQAGGSLRLSCAASGYISHADEMGWYRQAPGKEHELVASISNGGSTNYADSVKGRFTISRDNAKNTVYLQMNSLKSELTAVYYCAAWTGQVDIHYYWGQGTQVTVSS | low polyreactivity
7 | QVQLQESGGGLVQAGGSLRLSCAASGYISYFVGMGWYRQAPGKEREFVASIADGSNTYYADSVKGRFTISRDNAKNTVYLQRNSLKQEDTAVYYCAVEDSWTYRFDYWGQGTQVTVSS | high polyreactivity
8 | QVQLQESGGGLVQAGGSLRLSCEASGSISHYIFMGWYRQAQGKEREFVAGIGYGGTTNYADSVKGRFTISRDNAKNTVYLQMNSLKPEDTAMYYCAAREATEFYLYYWGQGTQVTVSS | low polyreactivity
9 | QVQLQESGGGLVQAGGSLRLSCEASGYISLAQTIGWYRQAPGKEREFVASIALGSSTYYTDSVKGSFTISRDKEKTTVYLQMNSLKPAETGVYYCAARVGASYAHDYWGQGTQVTVSS | low polyreactivity
10 | QVQLQESGGGLVQAGGSLRLSSAASGNFFDADIIGRYRQAPGKERELVASITDGGSTNYADSVKGRFTISRDDTRNTVHLQMNSLYPEDTAVYYCAAIAYPDIPTYFDYDSDYSYWGQGTQVTVSS | high polyreactivity
11 | QVQLQESGGGLVQAGGSLRLSSAASGSIIQYGYMGWYRQAPGKEREFVAGIGGGTSNYADSVKGRFTMSRDNAKNTVYLQMNSLKPEDTAVYYCNTDAGDYYGENYWGQGTQVTVSS | low polyreactivity
12 | QVQLQESGGGLVQAGGSLRLSSAASGTISPLPAMGWYRHAPGKEREFVAGIDTGAIHNYADSVKGRFTIRRDNAKNTVYLQMNSLKPEDTAVYYCAVFPAAYEYYERYYTYWGQGTQVTVSS | low polyreactivity
13 | QVQLQESGGGLVQAGGSLRLTCAASGSISRLDYMGWYRQASGKERELVAAIDNGSTTYYADSVKGRLTISRDNAKYTVYLQMNSLKPEDTAVYFCAAVRGRGGTHAYWGQGTQVTVSG | low polyreactivity
14 | QVQLQESGGGLVQAGGSLRLTCAASGTITVLYKRGWFRQAPGKEREFVASINYGTSTYYADSVKGRFTVSRDSAINTVYLQMTSLKPEDTAVDYCAAAYRWQDVYRYWGQGTQVTVSS | low polyreactivity
15 | QVQLQESGGGLVQAGGSLRPSCEASGNISLNVYMCWYRQAPGKEREFVAGTADGATTNYADSVKGRFTISRDNAKNTVFLQMNSLKPEDTAVYDCIKDYGYVQLRFYGPGYYWGQGTQVTVSS | low polyreactivity
16 | QVQLQESGGGLVQAGGSLRQSCAASGSISATDSVGWYRQAPGKEREFVATIDGGANTNYADSVKGRFTISRDNAKNTVYLQMNSLKPEDTAVYYCAKDSQTARDFDYWGQGTQVTVSS | low polyreactivity
17 | QVQLQESGGGLVQAGGSLRQSYAASGYIFPSLAMGWYRQAPGKEREFVAAIGRGSTNNYADSVKGRFTISRDNAKNTAYQQMNSLKPEDTAVYYCAADASPLTRNLYWGQGTQVTVSS | low polyreactivity
18 | QVQLQESGGGLVQAGGSLRVSCAASGYISSWYPRGWYRQAPGKEREFVATISPGATTYYADSVKGRFTISRDYAKNTVYLQMNSLKPEDTAVYYCSAGQENNDFYSYWGQGTQVTVSS | low polyreactivity
19 | QVQLQESGGGLVQAGGSPRLSCAASDNIFPDSVMCWYRQAPGKERELVATIGFGATTNYADSVKGRFTISRDNAKNTVYLQMNSLKPEDTAVYYCAADPLNYEYFCYGGQGTQVTVSS | low polyreactivity
20 | QVQLQESGGGLVQAGGTITLGYEMGWYRQAPGKEREFVAGIDTGAITYYADSVKGRFTNSRDNAKNTVYLQMNSLKPEDTAVYYCAAIQTHTYAHSYWGQGTQVTVSS | high polyreactivity
21 | QVQLQESGGGLVQAGGTLRLSCAASGSFSADEDMGWYRQAQGKEREFVAGISVGGNTNYADSVKGPFTISRENAKNTVYLQINSLKPEDTAVYYCAVLQDVYDALDFWAQGTQVTVSS | high polyreactivity
22 | QVQLQESGGGLVQAGGTLRLSCAASGSFSADEDMGWYRQAQGKEREFVAGISVGGNTNYADSVKGRFTISRENAKNTVYLELNSLKPEDTAVYYCAVLQDVYDALDYWAQGTQVTVSS | high polyreactivity

Row | Sequence | polyreactivity (PSR sort gate)
23 | QVQLQESGGGLVQAGVSLRLSCAASGYISIEEDISWFCQAPGKERELVASITYGAITYYADSVKGRLTISSDNAKNTVYRQMNCLKPEDTAEYYCAVSYDYQQYYVSCGQGTQVTVSS | low polyreactivity
24 | QVQLQESGGGLVQASGSLRLSCAASGNIFPDYVMGWYRLAPGKEREFVANITGGSTTNYADSVKGRFTISRDNAKNTVYLQMNSLNPEDTAVYYCAVNFGTVVLYLYWGQGTQVTVSS | high polyreactivity
25 | QVQLQESGGGLVQASGSPRLSCAASGNIFDADIMGWYRQAPGKQCELVASITDGGSTNYADSEKGRFTISSDNAKNTVYLQMNSLKPEDTAVYYCAAIAYPDIPTYFDYDSDYFYWGQGTHVTVSS | high polyreactivity
26 | QVQLQESGGGLVQAVCSRRLSCAASGSFSSRDAMGWYRQAPGTEREFVATIAVGGNTNYADSAKGRFTISRDNAKITVYLQMNSPKPEDTAVYYRAAVIDFDIFTYWGQGTQVTVRS | high polyreactivity
27 | QVQLQESGGGLVQVGGSLRLSCAASGNIFIYGIMGWNRQAPGKERELVASINLGGITNYADSVKGRFTISRDNAKNTVYLQMISLKPEDTAVYYCAAYVVTGQNYGYWGQGTQVTVSS | low polyreactivity
28 | QVQLQESGGGLVQVGGSLRLSCPSSGTIFIYGFLGWNRQAPGKERELVASINLGGITNYADSVKGRCTISRDNAKNTVNLQMISLKPEDTAVYYCATYVVTGQNYGYWGQGTQVTVSR | low polyreactivity
29 | QVQLQESGGGLVQVGGSLRLTCAASGTIFIYGFLGWNRQAPGKERELVASINLGGITNYADSVKGRFTISRDNANNTVYLQMISLKPEDTAVYFCAAYFVTGQNYGSWGQGTQVTVSS | low polyreactivity
30 | QVQLQESGGGLVQVGGSQRLSCAASGNIFYNYAMGRYRHAQGKEHEFDATINHGTSINYADSVKGRFTISRDNAKNTVYLQMNSLKPEDTAVYYCAADLSWTDNLFYWGQGTQVTVSS | low polyreactivity
31 | QVQLQESGGGLVRAGGSLRLSCAASGYISTSIAMGWYRQAPGKERELVASFGGGAITNYADSVKGFTISRDNGKNTVYLQMNCLKPEDTAVYYFAVYHGDRGYYSYWGQGTQVTVSS | low polyreactivity
32 | QVQLQESGGGMVQAGGSLLSCAASGTISYYREMGWYRQAPGKERELVAGIGVGTITYYADSVKGRFTIIRDNAKNTVYLQMNSLKPEDTAVYYCAAHIDGNDYHAYWGQGTQVTVSS | low polyreactivity
33 | QVQLQESGGGPVQAGGSMRLSCAASGSISELRPMGWYREAPGKERELVAGISTGGSTNYADSVKGRFTISRDNAKKTVFLQMNSLKPEDTAVYYCAAASYGEGSYDYWGQGTQVTVRS | high polyreactivity
34 | QVQLQESGGGQVQAGGSLRLSSAASGYIFAYNYMGWYRKAPGKERELVAAIVHGSTTNYADSVKGRFTISRDNAKNTVYLHMNNLKPEDTAVYYCAVDAERYYLHSYWGQGTQVTVSS | high polyreactivity
35 | QVQLQESGGGQVQAVGSLRLSCAPSGSNFVSDTMCWYRHAPGKDRELVASIGRGSTTNHADSVKGRFTISRDNAKNIVYLLMNSLKPEDTAVYYCAALESYGKYHGYWGQGTQVTVSS | low polyreactivity
36 | QVQLQESGGLVQAGGLRLSCAASGSVSYQEAMGWYRQAPGKERELVATISFGANTNYADSVKGRFTISRDNAKNTVYLHMNSRKPEDTAVYYCAAESLFDDYYGYWGQGTQVTVSS | low polyreactivity
37 | QVQLQESGGRLVQADGSLRLSCAASGSIFGYYYMGWYRQAPGKDRELVATINICGITNYADSVKGRFTISRDNAKNTVYLQMNSLKPDDTAVYYCAADEYAQRDLGYWGQGTQVTVSS | low polyreactivity
38 | QVQLQESGGVLVQAGGSLRLSCAASGNILDADIMGWYRQAPGKERELVASITDGGSTNYADSVKGRFTISRDNAKNTVYLQMNSLKPEDTAVYYCAAIAYPDIPTYFDYDSEYFYWGQGTQVTVSS | low polyreactivity
39 | QVQLQESGGVQAGGSLRLSCAESGYISRSDVMGWYRQAPGKERELVATINNGTITYYADSVKGRFTISRDNAKNTVYLQMNSLKPEDTAVHYCAVVQSDTDSLYYWGQGTQVTVSS | low polyreactivity
40 | QVQLQESGGVQAGGSLRQSCAASGYISRSDVMGWYRQAPGKERELVATINNATITYYADSVKGRFTISRDNAKNTVYLQMNSLKPEDTAVHYFAVVQSDTDSLYYWGQGTQVTVSS | low polyreactivity
41 | QVQLQESGRRPGAAGGSPRMSCAASGNIFWVAVMGRYRQAPGKERELVASIGFGCTTYYADSVKCRFTISRDNAKNTVYLQMISLKPEDTAVYYCAAPLYDWGELDYWGQGTQVPVSS | low polyreactivity
42 | QVQLQESGSGLVQAGGSLRLSCAASGAIFPAYLMGWYRQAPGKERELVAGISYGSITYCADSVKGRFNISRDNEKNTVYLQMNSLKPEDTAVYYCAVWRPGGDEYYYWGQGTQVTVSS | low polyreactivity
43 | QVQLQESRGGLVQAVRSLRLSCAASGTILYSLGMGWYRQAPGKRREFVASITRGTTTNYAESVKGRFTISRDNAKKTVYPQMNSLKAEDTGVSFCAGPPFGVSSYDYWGQGNQVTVSS | low polyreactivity
44 | QVQLQESRGGPVLAGGSLRLSCAASGTIFVRLDMGWYRQAPGKEREFVATIGSGSSTYYADSVKGSFTISRDNVKNTVYLQMNSLKPEDTAVYYCAVSAAEQSRHYYWDQGTQVTVSS | low polyreactivity
